B1: 994 (protein, listed as Catenulispora acidiphila)
chain: MLIRRRFATALALILAFAAVTPVASAAPSPSLSLSASSAGTEVSVSALQTDATTNPLGIDDPHPSLSWKLASQINGEYQSAYRIVVAGSQSDASAGVGSVWDSGEVASGNSVGIAYGGPALASEKTYYWAVQIWDEHGTASGWSAPAQWEMGLLNPGDWQGAQWISPTSASAASPLLRKDFTLAKPVARARAYVFGLGFYELHLNGGKVGDRVLEPASTPYAQRDLYAAYDVTGTVKQGGNAVGLWLGNGYDANFSQYGFRWLGPKQAIVLIDVTFSDGTHQAVTSDGSWTWSPSPITADGIYNGESYDARMVQPGWDAAGFSASSLQPVRTVAAPGGSLVADAMPPIRVTQTLNAVKLTSPSPGVYVYDFGQNVSGWEVLRTQGAAGSTVKMQTAEDLLANGTIDTTTNRNALSTDSYTLAGTGSTETYEPRFTYHGFRYVEVTGDPQTPVVSSLQARVVHADLASTSTFSSSDATLNQIWQNNQRTMLNNQMSTPTDNPVRDERTPPGMDVQAYHDASTAEFGMDTYYANYLRDMPPGTALPSDGGNAQQPDMGGDQVTLAWTLYQQYGDIATLAAMYPLMKKFVDTNATNVPGHIWSTGFGDWCPPDHSSNANGGMGNPSAGACTSEVPIVNTALSYLQASDVAKAATALGQAGDAAHYTQLAGDIANAFNAAFLNSDHASYGDGRETTSILPLAFGMVPAADVPAVGARLVDTVVRGNGGHLDTGIFGTRYLMDALAGIGRTDLAMTVLDQGTYPGYGFEIGKGATTDWEEWTYASSMESHDHAMFAGINASFASRLAGIEPTGPGYSTVSIAPQIPAGLQSVAASVSTVRGTVASSWSVSGGKVTMDVTVPVGATASVRVPSFGQGSVTTVSPAGAGAVQVSAGGTSSTYTVGSGSWEFTGSLVPASSTVLPGTWTQCAVETGNCSVAGTETVAFGAQGKYDYATVSGTVACSNTVFGDPDSGVSKACYAEPAPATTPGAWQQCAAETATCSFAGTETVAFGAQGKYTYATLTGGTPCTTTIFGDPAYGIPKSCFIEAPPPAATTWIPCAAETATCTLTASRDVAFGAHGDYAYRTANAPTTCTNAVFGDPAPGAVKACYLQ
B2: 1060 (protein, listed as Lunatimonas lonarensis)
chain: MTKTFKIGFLLLACVVFVSCSENPKQADCGLCESVGAKWIQVEKELPTEDSLFYLPNPAPLFRKEFGVESHFDSAKLFITAAGYYKATLNGEAIGKNILDPAWTDYTKRVYYAEYDLSAQIQEGTNCFGVSLGNGFYNPLPMRKWGRRNPREDLNVGKPTFIARLVLYYPNGKTKEISTDESWKYSYGPLIKNSVYLGVLYDKGMEIPGWDRPGFNDTGWKSVQVGKGPGGQLQAAFFPAVQVTEEIRPKSIHEIEKDVYIVDMGVNFTGTYKIRLAGNVGDTVTLRFGERLYEDGTLNPMTTVVGQIKAPGIGGPGSPAIAWQTSSYVVDTEPTWFSPDFTYHTFRYMEITGLQKPPLLTDITGLYFHTNVERESHFTSSNSLLNQIQDATTRTFLSNLISVQSDCAVREKFGYGGDLNATAESFIYNFDMRDIYRKTVYDWVDAINDSIFVDTAPFAGIKYCGISWESAYLITQYYLYLYYDETDLVHELYEDNLAWMDKVARIHPEGMVDSGLSDHESLEPVPVQLTGTAHYLQCAEIMETFASLKGDTKNQQRFAELSEKLRAIIKAEFWDKPVTERINRQTLFSTLLFHRIIPEDELGAARDSLVQAVKNGPSGQFNTGIFGTKYVLETLSESVPIDQVYAIVNSTKFPGWGHMISRGATTIWETWQESDNVFTNCHPMFGTVTEWYYRWLGGIRPDPKQPGFKAFVLAPRTPTGLDSISCSYRSPYGDIVSNWRRESGNSVVYDLIIPVGSVASVSLDMKAAQGLSITKDGKAFQPPVTDASTPGEFKLEGGNYKVVVSG
B3: 1022 (protein)
chain: MRKSRSLGLGLVKYILIVVALVGCIQTSPTMDESAINHQAQTIYLRGGFNGWSTATAFDRTEQAGIYVAKTKITMGNHGFKLAPADWSFAWVVSAHENQLVELNKSYRLNTAGGEEDSLFIETRGLYQFTLDITQANQPKLLVKLLSADSAKTPPPHYGEMTSLEFNRFNGEKVEAVFSAKATNNGLREYVHSTTQSLRDPVPSYSRYQEDIAHPRVRSGNIAFDALFALAVDEMKLNSVEQIKDGNYNNGQAIDCSCFETGEKWNYVWTRDLSYAAHLSLAQFDAQRVENSLLFKVSNLRASAPISPFLAGNAPYTQIIQDTGSGGSWPVSTDRMTWAFGATALLANLAEPQRSQFARKAFTALVNTIENDRLVAFDSHLGLYLGEQSFLDWREQSYASWIVDDLSSMSTAISLSTNAGHYQALVLAADLAGQLGDVPAAKKYKGWASALKNAINQHLWLEEKGLYSSLTSGHYHKVALEKFDWLGQSLAIVTGIASDEQARAILSSYPHGPMGAAVIFPQQPNIPVYHNRAIWPFVTAYGLNAAVKGKNVAVTQAALDTLTRAAALNLSNMENLEWLSSEPILLDKTHPQLSGPVINSKRQLWSVAAYLNLVSNTIFGAQPSQQGIEFRPFIPKSFKDQWFKHSQVINLINYQWRGKQFDLQLKFAPSNKKFGAYVVNRVKVNGLAHSGVLVEQALKQHNLIEIELVLDNTVDNNINLVDSEPLAFDPLVYAPLEPKLSVVAKANDYVIQIEDKGNANLTSAAIEYEIYRDGNLLTRVPAGAGVSQWLDKGQAQQAHCYAVAARFVKSQNQSHLSEVVCMGERMQIPVADQRIQSNKPKKILGEQLIFSQWGEADDTLQVHFSIDQPGKYAIQFNYHNPANAINLGISNGVKWLEVVNSSNQQSVKQAAVQFPHTRVDKTQFGDNLSTPVEIELAAGDYKLHLHDFYNMSYLQSNKTYTAAGGMKGISNKFDIYAVTFVLLPLK
modifications: Catenovulum agarivorans
B4: 1070 (protein, listed as Thermobaculum terrenum)
chain: MRKIIAQDPFTRNDPGIPWDQRGQWPASWVAARRLPSPPYVVAYRLAFVLPQAATATLHVTADERYELFLDSERVGRGSERGDADHWFYETYELELPAGPHTLVARVWSLGPLAPYAQLSVRHGFLLAAEPPLTEALSTGIAPWEAKRLEGYSWVNPSPAWGTGGNIALSAAQFPWGVERGEGDGWEPVEVVERAVGRLMALEAPPQHLLRPATLPAMLEVPIRVGRVRHVSAPSSEEVSSLPIRAEQALDEPEWQAMLEGRSSVTVPPHTTRRVIIDLEDYYCAYPELVTSGGEGGAVRLHWAESLYEDGRGRHKGDRDAIEGKYFRGVGDVFLPDGGDSRRFDTLWWQAGRYLELLVRTADSPLTVASLRLRETRYPLEMESAIATGDPDLDATIPLMVRAMQMCSHETYMDCPYYEQLMYAGDTRLEALVTYVMTRDDRLPRKALRMFDASRLASGLTQARYPSRVRQIIAPFALWWVAMVCDYAYWRPGTEYVRELMPGVRATMEAFERWRGSDGLLESPEGWNVTDWVPEWPAGIPPEGEWGRSGLLNWHLALVTRMVADLERALGNPQMAEHFGARAREIADAALRAFWVPSRGLMADDTACQRFSEHTQCLAILSGLLPPAIEEQVGRSLLEARDIARTTIYFSHYLFEACRKLGRVDVLLARLGLWRELVDKGLRTTIEAPEPTRSDCHAWGAHPLYHLFATFLGIRPAGLGFSAVEIAPQPAALRRLEGRLVHPRGDVWVAMEVDEEQIRARVRLPEAVPGVFCWGSRRVPLRPGEETDVVLPRAQG
B5: 1049 (protein, listed as Chitinophaga pinensis)
chain: MKQCMGIWLLFLSLQTWGQQLQVVHLRTDNKTNPLGCQLSPRLSWQLSASYNNCVQQAYQLQFSDDSTTLNSKKHTGKHVESADPFLTLPAAFAGITLLPAHTYYWRVQVWDKAGRPSGWSEVASFINALNGPADWKGAKWIGYEDVVDSMRVVPGVHNGTDKFYQKHKARQRTIVPLFRKAFSVQGKVKSALLYISGLGQYEASLNGVRLGDNFLAPGWTHYDETALYNTYDLTNVLQAGENALGVIVGNGFFNVNKERYRKLSVVYGMPRMICRLLITYENGKTTNIVSGTDWRTSASPITFTSIYGGEDYDAGKEQSGWDQPGFNDTEWKPAIVVKATEKRLLPEEDYPVKVMEVLPVRRITQPQPAVYMYDFGQNASGIIGLKIKGKKGQTVKLIPAELTNDKQLANQKATGSPYYFSYTLKGDGIETWQPRFSYYGFRYVQVEGAAPDTAVHTGDVPEIISLELLHTRNAAPVNGTFSCSNDLFNRIHTLILWAIKSNMQSVLTDCPHREKLSWLEQDYLMGNAIQYSYDIDLLYRKLIRDMKEAQTGEGLVPDIAPEFVFFDDHGFGFRDSPEWGSAGVIVPWLHYRWYGDKTVISDAYPMVKKYVAYLGAKAQHNILSYGLGDWFDNGPQRPGVAQLTPKGVTATAIYYYDLVLAGNMADLLGKTAEAKAFRVQADKVKATFNGEYFHTGTKVYSTGSQTAMAMPLCVGLVEEQYRQAVFSNMVDSIRQQRNQLTAGDIGFHFLVQALQEGGASDLLYEMNNRSDVPGYGFQLAKGATTLTESWAALEQVSNNHLMLGHLLEWFYTGLGGITQQAGSIGYKQLQICPEVVGDITWVKTSYNTPYGTVRSEWEKKDGGMLFRISIPPNSNAIVKLPAKREGRITADGKPLNNQDLSFEKERVVMYLGSGDYEFSTFK
B6: 1005 (protein, listed as Enterococcus casseliflavus)
chain: MTKKWQATWIEPQQEPTRKEPPFSLADMFSGKKVVQDPPEERLLPPHYLKKIFTVENKSIKQASLTMTAHGIYQAKINGQAVSEAIFAPDYTSYTQYLQYQTYDVTHMLKEKNVWSVTLADGWYAGRVSVSGGSAQFGDRLGILGEIEIYYTDGTYEIIVTDEDFVSSHGKYVYSDLFIGEKQDLRLEKENWETDFDLTGFTKVSKADYGFDHLTPQRGPQVKRQEKLAAKSIWWEKDAVIVDFGQVIAGRVQLQIPLADGQEITIEHSEVLDREGHFFNNIVGRNKDQKDVFIGNGREACLEPDFTFHGFRYIKIDGLDVLPDKQSVWAYAIYSDMKATGSFTTSNQKINQLIENIQWSQKGNMLSIPTDCPQRERVGWTGDIQVFGPTATFFMDVYDFLGRWLDNVRLEQQADGQIVDYTPAPRDYFEGESLTGSLSSAGWGDAIVLLPWTLYQRYGKLEILVENYQAMKRWLSFSRKSAAGDKTDDKQYLWDTKFHFGDWMFPSFMIGEDAKGPMETAFVTKDLFGTAFLAHSSQLFAQISQLLDEEEENWSDFSNKVKAAFQKYYWRDDHLTADFQGSYVIALAFDLLDETASKAAAARLTELIIANNYCLDTGFLSIPYLLDVLCDYGYQELALKLLLQEECPSWLYEVNHGATTIWESWASIQPDGTVCDFSFNHYAFGCVGDWLVRRLAGLQVTEPGFTFFTISPLEQTAISSYHLNYTTAYGDIEIERSNDQFHLSVPQNTKAIFQYGETSKVLTSGKHHLTIKGEKIYE

Experiments:
Type in all cases: biochemical, Quillaja saponaria
[1] = Experiment 6-1: screening of rhamnosidases for derhamnosylation of saponins in treated bark extract (2%), QS-17 2296 to QS-18 2150 (PAR %); details: TBE 2%, pH 7.5, 30 degC, 18 h; TIC peak area ratio percent of rhamnosylated starting saponin to derhamnosylated product, LCMS/MS; negative controls 4.876, 5.225
[2] = Experiment 6-1: screening of rhamnosidases for derhamnosylation of saponins in treated bark extract (2%), desglucosyl-QS-17 2134 to QS-21 1988 (PAR %); details: TBE 2%, pH 7.5, 30 degC, 18 h; TIC peak area ratio percent, LCMS/MS; negative controls 2.719, 2.158
[3] = Experiment 6-1: screening of rhamnosidases for derhamnosylation of saponins in treated bark extract (2%), QS-17 2310 to QS-18 2164 (PAR %); details: TBE 2%, pH 7.5, 30 degC, 18 h; TIC peak area ratio percent, LCMS/MS; negative controls 3.061, 2.429
[4] = Experiment 6-1: specificity of rhamnosidases towards other rhamnose residues (C3 saccharide rhamnose, C28 saccharide rhamnose); details: TBE 2%, pH 7.5, 30 degC, 18 h; LCMS/MS; negative controls 0.18, 0.17

Molecule | QS-17 (PAR %) [1] [%] | Peak75 (PAR %) [2] [%] | Peak57 (PAR %) [3] [%] | ratio PP/QS-21 [4]
B1 | 5.177 | 2.147 | 3.300 | 0.16
B2 | 5.159 | 2.382 | 2.888 | 0.15
B3 | 5.190 | 2.368 | 2.882 | 0.15
B4 | 5.168 | 2.275 | 3.311 | 0.18
B5 | 5.211 | 2.417 | 2.271 | 0.18
B6 | 5.166 | 2.767 | 2.799 | 0.17

Source: patent US20240026407A1, “MODIFICATION OF SAPONINS” (GLAXOSMITHKLINE BIOLOGICALS SA, priority 2020, published 2024)
